Measured values reported in patent publication USRE47972.

Target: trypsin
Assay: cell-based or functional assay

Substance | Specific Inh. Activity [TIU/mg IαIp]
Human IαIp (mixture of inter-alpha inhibitor IαI and pre-alpha inhibitor PαI) purified from cryoprecipitate, a side-fraction of fVIII production (from UniProt P02760 206-352; P19827 35-672; P19823 55-702; Q06033 35-651) | 1410
Highly purified human IαIp (mixture of inter-alpha inhibitor IαI and pre-alpha inhibitor PαI) purified from cryo-poor plasma (from UniProt P02760 206-352; P19827 35-672; P19823 55-702; Q06033 35-651) | 1410
